Data taken from the nanobody polyreactivity screen of Harvey et al. (2022).

Test: yeast display, Sf9 membrane polyspecificity reagent, FACS + sequencing; frameworks hold sequencing errors
Outline: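 Nanobodies came from a synthetic yeast display library in Saccharomyces cerevisiae BJ5465, induced with galactose for 36–48 hours and stained for 1 hour at 4 °C with 10% biotinylated, detergent-solubilized Sf9 membrane reagent. Cells were enriched on streptavidin microbeads and then FACS-sorted, with low and high (top ~1%) gates set on anti-HA fluorescence for expression and streptavidin fluorescence for reagent binding. Each polyreactivity label reflects the gate a clone came from. Genes were amplified by colony PCR, sequenced by MiSeq 2 × 250 and filtered by CDR length.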

| Sequence | polyreactivity (PSR sort gate) |
| --- | --- |
| QVQLVDSGGGLVQAGGSLRLSCAASGSIFSVNAMGWYRQAPGKERQLVAAISVRGGRTYYADSVKGRFTISRDNAKNTVYLQMNSLIPEDTAVYYCATRISTVGRYDYWGQGTQVTVSS | high polyreactivity |
| QVQLVDSGGGLVQAGGSLRLSCAASGSIFVGNAMGWYRQAPGKERELVAAISWRGGRTYYADSVKGRFTISRDNAKYTVYLQMNSLKPEDTAVYYCATVKARDYGYWGQGTQVTVSS | high polyreactivity |
| QVQLVDSGGGLVQAGGSLRLSCAASGSIFYVNAMGWYRQAPGKERELVASITQSGGSTYYADSVKRRFTISRDNAKNTVDLQMNILKPEDTSVYYCNADIHVYPTRTRYYYWGQGTQVTVSS | low polyreactivity |
| QVQLVDSGGGLVQAGGSLRLSCAASGSIIYDYPMGWYRQAPGKEREFVASIDWRGDSTYYADSVKGRFTNSRDNAKNTVYLQMNRLKPEDTAVYYCAADRSYQYYFYEDYGYDYWGQGTQVTVSS | low polyreactivity |
| QVQLVDSGGGLVQAGGSLRLSCAASGSIYGYYAMGWYRQAPGKELVLVAVITSGATTNYADSLKGRFSISRDNAKNTGYLQMNSLKPEDTAVYYCAARPQVKRGRYGYWGQGTQVTVSS | low polyreactivity |
| QVQLVDSGGGLVQAGGSLRLSCAASGSSFYISAMGCYRQAPGKERELVAAITNAGSTKYADSVKGRFTISRDNAKNTVYLQMNSLKPEDTAVYYCAAVTFSYDGYDYWGQGTQVTVSS | low polyreactivity |
| QVQLVDSGGGLVQAGGSLRLSCAASGSTFPSNAMGWYRQAPGKERELVASIDRGGSTNNADSVKGRFTISRDNAKNTVYLQMNRLKPEDTAVYYCAAKRWPYWDISVYYWGYDYWGQGTQVTVSS | low polyreactivity |
| QVQLVDSGGGLVQAGGSLRLSCAASGSTFRYNVMGWYRQAPGKEREMVATISYSGGSTNYADSVKGRFTISRDNAKNTVYLPMNSLKPEDTAVYYCAARYLYPFYRYWWYDYWGQGTQVTVSS | high polyreactivity |
| QVQLVDSGGGLVQAGGSLRLSCAASGSTFRYYAMGWYRQAPGKEREFVAAITRSGGSTYYADSVKGRFTISRDNAKNTVYLQMNSLKPEETAVYYCNARPSASSRKKLERYYWGQGTQVTVSS | low polyreactivity |
| QVQLVDSGGGLVQAGGSLRLSCAASGSTFTYYAMGWYRPAPGKERELVASITTSGGDTNYADSVKGRFTISRDNAKKTVYLQRNSQKPEDTPLYYCNTTTDQHYGYCAAADADRKYDYWGQGTQVTVSS | low polyreactivity |
| QVQLVDSGGGLVQAGGSLRLSCAASGSTIVYYAKGWYRHAPGKERELVAVISDDGGTYYADSVKGRFTISRDNAKNTVYFQMNSLKPEDTAFYYCAKDYYGGAYYWYNDRSGDYWGQGTQVTVSS | low polyreactivity |
| QVQLVDSGGGLVQAGGSLRLSCAASGSTLVYKDMGLYRQAPGKEREFVAAIRSNDGSTYYADSVKGRFTISRDNAKNTVYLQMNSLKPEDTAVYYCAKGRYAYSIWDDYWGQGTQVTVSS | low polyreactivity |
| QVQLVDSGGGLVQAGGSLRLSCAASGSTSQKNAMGWYRQAPGKERELVAAISSGGSTYYADSVKGRFTISRDNAKNNVYLQLNSLKPEDTAVYNCAAKDLRGLGYWGQGTQVTVSS | high polyreactivity |
| QVQLVDSGGGLVQAGGSLRLSCAASGYIDGTYAMGWYRQAPRKERDLVASISSSGGSTYYADSVNGRFTISRDNAKNTVYLQMNSLKPEDTAVYYCNAERKIIAYLWWYDYWGQGTQVTVSA | low polyreactivity |
| QVQLVDSGGGLVQAGGSLRLSCAASRNAMGWYRQAPGKERELVGAISFRGGSTYYADSVKGRFTISRDNAKNTVYLQMNSLKPEDTAVYYCAKVQHHDYEGRGFPDAADGYWGQGTQVTVSS | low polyreactivity |
| QVQLVDSGGGLVQAGGSLRLSCAASVRIFYEYAMGWYRKAPGKERQFVASISRTDGGTYYADSVKGRFTISRDNAKNTVYLQMNSLKPEENAVYYCATRAYYNTEVYYWGQGTQVTVSS | high polyreactivity |

| Sequence | polyreactivity (PSR sort gate) |
| --- | --- |
| QVQLVDSGGGLVQAGGSLRLSCAAYGSTFGPYAMGWYRQAPGKERELVAAIRVSGGSTYYADSVKGRFTISRDNAKNTVYLQMNSLKPEDTAVYYCIRDVMTFNYDYWGQGTQVTVSS | low polyreactivity |
| QVQLVDSGGGLVQAGGSLRLSCDASGSTFLYYAMGWYRQAPGKERELVARITSRFGRTYYADSVKGRFTISRDNAKNTVYLQMNSLKPEDTAVYYCAAYPDYSYYYWGHGTQVTVSS | high polyreactivity |
| QVQLVDSGGGLVQAGGSLRLSCDATGRIFRLYAMGWYRQAPGKERELVAAISWRGSSTNYADSVKGRFTISRDNAKNTVYLQRNSLKPEDTAVYYCAAPGRGGYYYWGQGTQVTVSS | high polyreactivity |
| QVQLVDSGGGLVQAGGSLRLSCPASGRIFGRNAMAWYRQAPGKERELVAAISSSGGTYYADSVKGRFTISRDNAKNTVYLQMNSLKPEDTAVYYCAADPLYYWWRGDYWGQGTQVTVSS | high polyreactivity |
| QVQLVDSGGGLVQAGGSLRLSCSASGFTFKYYAMGWYRQAPGKERELVASINWSGGRTSYADSVKGRFTISRDNAKNTVYLQMNSQKPEDTAVYYCARTPAGRGEYWGQGTQVTVSS | low polyreactivity |
| QVQLVDSGGGLVQAGGSLRLSFAASGITFFYYAMGWYRQAPGKERELVAAISTSGGRTYYADSVKGRFTISRDNAKNTVYLQMNSLKPEDTAVYYSAAQSGWLRYYYWGQGTQVTVSS | high polyreactivity |
| QVQLVDSGGGLVQAGGSLRLSSAASGRTFDYYAMGWYRQAPGKERELVAAITKDGGSTYYADSVKGRFTISRDNAKNTVFLQMNSLKPEDTAVYYCAADGPPLYYDPIHYDYWGQGTQVTVSS | low polyreactivity |
| QVQLVDSGGGLVQAGGSLRLSWAASGITFYTYTMGWYRQAPGKERELVAAISRRGGGTYYADSVKGRFTISRDNGKNTVYFQMNILKTEVTAVYYCAKDWYGRYYYWGQGTEVTVSS | high polyreactivity |
| QVQLVDSGGGLVQAGGSLRLTCAACGSIFVNNSMGWSRQATGKQRELVAAISSRSSRTFYADSVKGRFTISRDNEKNTVFLQMNSLKPEDNAVYYCAVKKRAPDGDYWGLGTQVTVSS | high polyreactivity |
| QVQLVDSGGGLVQAGGSLRLTCAASGSTIYWYAMGWYRQAPGKERELVAAISSSGSTKYADSVKGRFTISRDNAKNNVYLQINSLKPEDTAVYYCAADVEYDRDVPQQVYVSDDYWGQGTKVTVSS | low polyreactivity |
| QVQLVDSGGGLVQAGGSLSLSCAASGRTFNWYTMGWYRQAPGKEMELVARINGRGGSTYYADSVKGRFTISRDNAKNTVYLQMNSLKPEDTAVYYCNKPHRWPQAGYGYWGQGTQVTVSS | high polyreactivity |
| QVQLVDSGGGLVQAGGSLSLSCAASGSIFNVYGMGWYRQAPGKERELVARINSRGGITYYADSVKGRFTISRDNAKNTVYLQMNSLKPEDTAVYYCATDTQDLQGYSWFDYWGQGTQVTVSS | high polyreactivity |
| QVQLVDSGGGLVQAGGSLSLSCAASGSTFTDYDMGWYRQAPGKERELVAAITSGGSTNYADSVKGRFTISRDNAKKTVYLQMNSLNPEATAVYYCAAADADRKYDYWGQGTQVTVSS | low polyreactivity |
| QVQLVDSGGGLVQAGGSLSLSCAASGSTYAYYAMGWYRQAPGKVRELVAGITWTGGSTYYADSVKGRFTISRDNAKNTVYLQMNSLKPEDTAVYYCAVTYPYGYEYDHWGQGTQVTVSS | low polyreactivity |
| QVQLVDSGGGLVQAGGSLSLSCAASGYTMGYYTMGWYIEAPGKERELVATISRRGGSTSYADSVKGRFTISRDNAKNTVYLQMNSLKPEDTAVYYCNAQTSGRVGSQYYSYDGSWGQCTQVTVSS | high polyreactivity |
| QVQLVDSGGGLVQAGGSLSLSCGASGIIFVSNAMGWYRQAPGKERELVATINWSDDSTYYADSVKGRFTISRDNAKNTVYLQMNSLKPEDTAVYYCYWRQGTQVTVSS | low polyreactivity |
